Experimental data as given in the supplement of paper PMC10567573.

B1: TRAF3IP2 (parent)
chain: FMEKRNQWLVSQLSAASPDTGHDS
B2: FAM46C (parent)
chain: VRSRLEEAGIKVHDVRLNGSAAGH

Variants of: B1
Assay: protein stability index of a GFP-peptide fusion (GPS, HEK-293T) (PSI 1-6); higher = more stable
Conditions: c terminus: a fixed tail appended
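Further: lentivirally expressed fusions sorted by FACS into six bins by GFP to DsRed ratio, PSI derived from sequencing read proportions per bin multiplied by bin number.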

Protein stability index, by site and new letter:
Q12: T 1.7 | K 1.77 | R 2.33 | D 3.21 | H 3.89 | V 1.53 | I 1.89 | M 1.68
A16: P 2.14 | G 3.03 | D 2.29 | S 2.39 | C 1.96 | F 2.9
V10: Y 2.5 | K 3.41 | I 2.12 | Q 2.93 | R 3.28
S24: L 2.22 | R 2.48 | Y 2.04 | W 2 | A 2.4 | V 2.29 | I 2.1
S14: P 2.53 | N 2.58 | Q 2.57 | E 2.74 | G 2.3 | Y 1.63 | H 2.48 | M 2.34 | F 1.93 | D 3.29 | C 2.15 | K 2.41
D19: S 2.43 | V 1.92 | H 2.2 | N 2.4 | G 1.7 | L 1.92
A15: K 3.53 | G 2.71 | T 2.7 | M 1.7 | W 2.29
N6: S 2.2 | C 1.77 | D 2.73 | K 2.42
S17: H 2.73 | G 2.47 | E 2.88 | M 2.1 | D 2.94 | R 2.46
K4: N 2.38 | I 2.6
S11: D 3.79 | Y 2.64 | R 3.3 | T 2.19 | V 2.4 | P 2.9 | G 3.32 | M 1.71
L13: C 1.91 | A 3.73 | F 2.48 | I 2.17 | R 3.01 | P 3.13
E3: D 2.24 | T 3.83 | M 2.28 | C 1.58 | A 3 | Q 2.27 | F 2.94 | Y 3.02
W8: I 4.25 | Q 4.63 | N 5.08 | F 3.95 | Y 4.21 | E 4.74
Q7: Y 2.88
L9: C 2.41 | N 3.44 | S 3.15 | V 1.71
D23: G 2.11 | P 2.21 | M 2.12 | S 2.69 | Y 1.75 | V 2.71 | K 1.6
M2: R 3.56 | I 1.25 | P 1.42
P18: G 2.38 | K 2.42 | C 2.22 | V 2.54 | Q 2.09 | A 2.35
T20: S 3.24 | L 1.96 | F 1.97 | A 2.32 | M 3.13 | V 2.75 | R 1.89
R5: L 1.79 | F 1.83 | G 1.71 | K 2.38 | C 2.25 | V 1.97 | T 2.16 | S 2.28
F1: M 3.56 | A 4.91 | Q 4.88 | L 3.88 | I 3.72 | E 4.77 | S 4.37 | H 4.84 | R 4.48 | N 4.36 | K 3.71
G21: P 2.75 | W 1.63 | D 2.47 | L 1.78 | M 1.77
H22: S 2.33 | R 1.82 | Y 1.94 | C 2.8 | A 3.18 | M 2.15

Variants of: B2
Assay: as above
Conditions: c terminus: a fixed tail appended

Protein stability index: each site, then its substitutions
S3: G 2.91 | L 1.28 | K 1.37 | F 1.69 | Q 1.79 | H 3.76
R4: S 3 | C 2.72 | T 3.71 | N 2.47 | G 3.25 | E 4.73 | K 2.27 | W 2.33 | A 1.2 | Y 1.81
G19: P 1.55 | Q 2.74 | S 2.09 | H 2.54
